Experimental findings from patent US20220380454A1 (University of California, published 2022) are described below.

Test [1] addresses T1, oligomeric Aβ42 (biotin-Aβ42 oligomers) (human, biotin (human biotin-beta-Amyloid (1-42), AnaSpec); position not stated).
T1 construct: Mixture of oligomers prepared from human Aβ42 (24-26 h at 4 °C, supernatant); The number of copies per oligomer is therefore not fixed; also called Aβ oligomers; oligomerized Aβ
In words: biotin-Aβ42 oligomers on transfected HEK293T cells, 488-conjugated streptavidin staining. An excerpt:
Binding assay. HEK293 cells were transiently transfected (polyethylenimine) with expression vectors encoding TdTomato, Celsr3-Flag or control empty vectors (pCAGEN). […] DAPI was used to counterstain cell nuclei; TdTomato was used to monitor construct transfection. Anti-flag antibody was used to stain Celsr3. Fluorescent images were captured with Zeiss LSM 880 fast airyscan using a 63× oil-immersion objective.

In test [2] the target is T1, oligomeric Aβ42 (biotin-Aβ42 oligomers). The experiment in a line: biotin-Aβ42 oligomers on transfected HEK293T cells, streptavidin staining.

B1: Frizzled3-HA (receptor, not shown: small tags and cut ends)
chain: HSLFSCEPITLRMCQDLPYNTTFMPNLLNHYDQQTAALAMEPFHPMVNLDCSRDFRPFLCALYAPICMEYGRVTLPCRRLCQRAYSECSKLMEMFGVPWPEDMECSRFPDCDEPYPRLVDLNLVGDPTEGAPVAVQRDYGFWCPRELKIDPDLGYSFLHVRDCSPPCPNMYFRREELSFARYFIGLISIICLSATLFTFLTFLIDVTRFRYPERPIIFYAVCYMMVSLIFFIGFLLEDRVACNASSPAQYKASTVTQGSHNKACTMLFMVLYFFTMAGSVWWVILTITWFLAAVPKWGSEAIEKKALLFHASAWGIPGTLTIILLAMNKIEGDNISGVCFVGLYDVDALRYFVLAPLCLYVVVGVSLLLAGIISLNRVRIEIPLEKENQDKLVKFMIRIGVFSILYLVPLLVVIGCYFYEQAYRGIWETTWIQERCREYHIPCPYQVTQMSRPDLILFLMKYLMALIVGIPSIFWVGSKKTCFEWASFFHGRRKKEIVNESRQVLQEPDFAQSLLRDPNTPIIRKSRGTSTQGTSTHASSTQLAMVDDQRSKAGSVHSKVSSYHGSLHRSRDGRYTPCSYRGMEERLPHGSMSRLTDHSRHSSSHRLNEQSRHSSIRDLSNNPMTHITHGTSMNRVIEEDGTSA
notes: Expressed in transfected HEK293T cells; also called Fzd3-HA; HA-tagged Frizzled3
Take B1: in test [1], the binding result is on record as “no binding (tested: 200 nM total peptide, monomer equivalent)”.

B2: Vangl2-Flag (other, not shown: small tags and cut ends)
chain: MDTESQYSGYSYKSGHSRSSRKHRDRRDRHRSKSRDGSRGDKSVTIQAPGEPLLDNESTRGDERDDNWGETTTVVTGTSEHSISHDDLTRIAKDMEDSVPLDCSRHLGVAAGAILALLSFLTPLAFLLLPPLLWREELEPCGTACEGLFISVAFKLLILLLGSWALFFRRPKASLPRVFVLRALLMVLVFLLVISYWLFYGVRILDARERSYQGVVQFAVSLVDALLFVHYLAVVLLELRQLQPQFTLKVVRSTDGASRFYNVGHLSIQRVAVWILEKYYHDFPVYNPALLNLPKSVLAKKVSGFKVYSLGEENSTNNSTGQSRAVIAAAARRRDNSHNEYYYEEAEHERRVRKRRARLVVAVEEAFTHIKRLQEEEQKNPREVMDPREAAQAIFASMARAMQKYLRTTKQQPYHTMESILQHLEFCITHDMTPKAFLERYLAAGPTIQYHKERWLAKQWTLVSEEPVTNGLKDGIVFLLKRQDFSLVVSTKKVPFFKLSEEFVDPKSHKFVMRLQSETSV
Consider B2, for which the binding result in test [1] is recorded as “no binding (tested: 200 nM total peptide, monomer equivalent)”.

B3: mouse Ryk-HA (receptor, UniProt Q01887 35-594, looked up)
chain: RSPALAAAPAGPSVSLYLSEDEVRRLLGLDAELYYVRNDLISHYALSFNLLVPSETNFLHFTWHAKSKVEYKLGFQVDNFVAMGMPQVNISAQGEVPRTLSVFRVELSCTGKVDSEVMILMQLNLTVNSSKNFTVLNFKRRKMCYKKLEEVKTSALDKNTSRTIYDPVHAAPTTSTRVFYISVGVCCAVIFLVAIILAVLHLHSMKRIELDDSISASSSSQGLSQPSTQTTQYLRADTPNNATPITSSSGYPTLRIEKNDLRSVTLLEAKAKVKDIAISRERITLKDVLQEGTFGRIFHGILVDEKDPNKEKQTFVKTVKDQASEVQVTMMLTESCKLRGLHHRNLLPITHVCIEEGEKPMVVLPYMNWGNLKLFLRQCKLVEANNPQAISQQDLVHMAIQIACGMSYLARREVIHRDLAARNCVIDDTLQVKITDNALSRDLFPMDYHCLGDNENRPVRWMALESLVNNEFSSASDVWAFGVTLWELMTLGQTPYVDIDPFEMAAYLKDGYRIAQPINCPDELFAVMACCWALDPEERPKFQQLVQCLTEFHAALGAYV
notes: whole, on cells; Expressed in HEK293T cells; not shown: HA tag
In the case of B3, the binding result in test [2] is “no binding (tested: 200 nM total peptide, monomer equivalent)”.

B4: human Ryk-Flag (receptor)
chain: PPPLLLLLALLPLLPAPGAAAAPAPRPPELQSASAGPSVSLYLSEDEVRRLIGLDAELYYVRNDLISHYALSFSLLVPSETNFLHFTWHAKSKVEYKLGFQVDNVLAMDMPQVNISVQGEVPRTLSVFRVELSCTGKVDSEVMILMQLNLTVNSSKNFTVLNFKRRKMCYKKLEEVKTSALDKNTSRTIYDPVHAAPTTSTRVFYISVGVCCAVIFLVAIILAVLHLHSMKRIELDDSISASSSSQGLSQPSTQTTQYLRADTPNNATPITSSLGYPTLRIEKNDLRSVTLLEAKGKVKDIAISRERITLKDVLQEGTFGRIFHGILIDEKDPNKEKQAFVKTVKDQASEIQVTMMLTESCKLRGLHHRNLLPITHVCIEEGEKPMVILPYMNWGNLKLFLRQCKLVEANNPQAISQQDLVHMAIQIACGMSYLARREVIHKDLAARNCVIDDTLQVKITDNALSRDLFPMDYHCLGDNENRPVRWMALESLVNNEFSSASDVWAFGVTLWELMTLGQTPYVDIDPFEMAAYLKDGYRIAQPINCPDELFAVMACCWALDPEERPKFQQLVQCLTEFHAALGAYV
notes: not shown: Flag tag
B4: the binding result in test [2] is given as “no binding (tested: 200 nM total peptide, monomer equivalent)”.
